Patent US20070184522A1, “Cell death modulation via antagonists of Fasl and Fas activation” (University of Pittsburgh of the Commonwealth System of …, priority 2004, published 2007)

T1: Fas-Fc (Mus musculus, UniProt P25446)
T1 construct: purchased R&D
T1 sequence (P25446 22-169 limits assumed): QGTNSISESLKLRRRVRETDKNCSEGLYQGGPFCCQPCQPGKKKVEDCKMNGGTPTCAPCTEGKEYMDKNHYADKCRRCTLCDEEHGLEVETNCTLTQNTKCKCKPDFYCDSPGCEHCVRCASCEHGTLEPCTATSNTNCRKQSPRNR

T2: Fas-Fc / Fas ligand binding (Mus musculus, UniProt P25446)
T2 construct: purchased R&D
T2 sequence (P25446 22-169 limits assumed): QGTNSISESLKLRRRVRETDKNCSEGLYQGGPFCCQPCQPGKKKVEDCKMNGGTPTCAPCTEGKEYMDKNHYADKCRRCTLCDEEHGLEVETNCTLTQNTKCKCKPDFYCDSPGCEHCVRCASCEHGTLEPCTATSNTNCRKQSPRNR

T3: Fas-Fc (extracellular part of Fas) (Mus musculus, UniProt P25446)
T3 construct: purchased R&D
T3 sequence (P25446 22-169 limits assumed): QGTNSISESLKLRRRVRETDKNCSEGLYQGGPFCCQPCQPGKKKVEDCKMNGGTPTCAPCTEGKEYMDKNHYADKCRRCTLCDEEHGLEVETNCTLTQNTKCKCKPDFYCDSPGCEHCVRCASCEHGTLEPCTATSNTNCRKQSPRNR


Experiments:
[1] = biological target: T1, Fas-Fc; assay: ELISA of Fas-Fc binding to coated synthetic polypeptides; details: peptides coated at 1 μg/ml, increasing Fas-Fc, OD 450 nm
Text: The Met alpha but not beta chain binds to Fas (FIG. 1a). Various regions of the mouse Met cDNA corresponding to the alpha chain or the extra-cellular portion of the Met beta chain were cloned into expression vectors (pCRT7 TOPO/AlphaMet or pCRT7 TOPO/beta chain) and subjected to in vitro transcription/translation by a rabbit reticolucyte lysate translation system. Empty vector was included in each experiment as a control. The expressed proteins were labeled with ^35S-Methionine. Pull down assays were performed using Fas-Fc, a chimeric molecule which lacks the interacellular cytoplasmic domain and protein-A agarose as described in Wang et al., 2002. FIG. 1b is a schematic presentation of the Met alpha chain and its mutant version used to map the region interacting with Fas. The C-terminus of each construct contains a hexa-Histidine tag for ease of detection. Start cordon ATG was added to the N-terminally truncated constructs. The YLGA (SEQ ID NO:1) motif mutation was prepared by PCR, in which YLGA (SEQ ID NO:1) was replaced by DHER (SEQ ID NO:24). […] In vitro translated ^35S-methionine labeled truncated/mutated AlphaMet proteins were pulled down with 2 μg of Fas-Fc or the same amount of IgG. Lane 1: 10% of AlphaMet input; Lane 2: AlphaMet with IgG control; Lanes 3 to 8: pull down of various truncated AlphaMet proteins; N-terminal 1-106 residues; C-terminal truncated, residues 1-210; alpha chain, residues 1-306; alpha chain with transmembrane domain, 1-338; N-terminally truncated alpha chain, residues 100-306; and N-terminally truncated with addition of the transmembrane domain 100-338, respectively. FIG. 1d depicts the amino acid sequence alignment of alpha chain with FasL, determined using the CLUSTALW, SIM+LALNVIEW, and ALIGN at ExPASy Proteomic Tools (available on the internet at us.expresly.org/tools). The numbers indicate the amino acid residues of the indicated protein. […] Recombinant His-tagged AlphaMet or its mutant version were expressed in E. coli, purified with chromatography, and subjected to Fas-Fc (lanes labeled Fas) or control IgG pull down experiments, and detected by Western blot using anti-His antibody that recognizes C-terminal His. This antibody also recognizes the Fas-Fc which is also tagged at the C-terminus by His. […] Purified recombinant AlphaMet protein (approximately 10 μg) was mixed with Hepa 1-6 cells or Jurkat cell lysates and subjected to immunoprecicitation using anti-Fas antibody or control IgG followed by Western blot using anti His-tag antibody as a probe. […] Peptides (1 μg/ml) were coated into the 96-well microtiter plates in triplicate and after blocking with 1% BSA, increasing amounts of Fas-Fc were added as indicated. The control peptide was a scrambled 13 mer. After washing the wells, anti-human […]-HRP conjugates (1:20,000) were added to detect the bound Fas-Fc using TMD dye and the OD value was determined at a wavelength of 450 nm. One-way ANOVA was carried out for determination of statistical significance.
ELISA. Synthesized polypeptides (Genemed Synthesis, Inc. South San Francisco, Calif.) were dissolved in water and diluted in the coating buffer (0.05M of Sodium Carbonate, 0.02% of Sodium Azide, pH 9.6) to a final concentration of 1 ug/ml. One hundred microliter aliquots were added to coat each well of a 96-well microtitre plate. The coated plates were then washed with PBS-Tween (0.5%) three times. The plates were blotted and dried by tapping upside down on tissue paper. They were blocked using 200 μl of 1% of BSA in PBS solution followed by a 2 hour incubation. Plates were washed another three times, Fas-Fc was added, and the plates were incubated for another 2 hours. The plates were washed three times and anti-human IgM Fc HRP conjugates were included at a final concentration of 1:20,000, and incubated for 1 hour. Plates were washed three times again and ready-to-use TMD was added and incubated for 30 minutes. The color reaction was stopped by 2M of Sulfuric Acid. […]

[2] = biological target: T2, Fas-Fc / Fas ligand binding; assay: Competition ELISA: coated Fas ligand, Fas-Fc added with increasing amounts of polypeptide; details: Fas ligand 1 μg/ml coated, Fas-Fc 1 μg/ml
Experimental: This antibody also recognizes Fas-Fc which is also tagged at the C-terminus by His. In FIG. 2b, a fixed amount of purified recombinant Fas-ligand was added to Fas-Fc in the absence or presence of increasing amounts of AlphaMet as indicated. Samples were subjected to pull down using proteinA agarose followed by Western blot using a polyclonal rabbit anti-FasL antibody. […] Fas ligand (1 μg/ml) was coated in the wells of a microtiter plate (triplicate wells) then 1 μg/ml of Fas-Fc was added in the absence or presence of an increasing amount of the indicated polypeptide. A 13 mer YLGA polypeptide derived from FasL also was synthesized and used. The control peptide was a scrambled 13 mer. Anti human IgM-HRP conjugates were used to detect the bound Fas-Fc. […] One-way ANOVA was carried out for determination of statistical significance. […] Cells (3×10^5) were plated in 24-well plates having Poly-L-Lysine pre-treated cover glass. 2 μg/ml of Fas ligand was added and the cells were incubated for 30 min on ice. Cells were then washed by PBS twice, and were subjected to immunostaining using anti-Fas ligand antibody and fluorescent microscopy. In Frame A, Fas ligand was not added, in B, only Fas ligand was added, in C-F, Fas ligand was added with different polypeptides as follows: AlphaMet, 12 mer YLGA, control peptide, and YLGA mutated AlphaMet, respectively.
ELISA. Synthesized polypeptides (Genemed Synthesis, Inc. South San Francisco, Calif.) were dissolved in water and diluted in the coating buffer (0.05M of Sodium Carbonate, 0.02% of Sodium Azide, pH 9.6) to a final concentration of 1 ug/ml. One hundred microliter aliquots were added to coat each well of a 96-well microtitre plate. The coated plates were then washed with PBS-Tween (0.5%) three times. The plates were blotted and dried by tapping upside down on tissue paper. They were blocked using 200 μl of 1% of BSA in PBS solution followed by a 2 hour incubation. Plates were washed another three times, Fas-Fc was added, and the plates were incubated for another 2 hours. The plates were washed three times and anti-human IgM Fc HRP conjugates were included at a final concentration of 1:20,000, and incubated for 1 hour. Plates were washed three times again and ready-to-use TMD was added and incubated for 30 minutes. The color reaction was stopped by 2M of Sulfuric Acid. Plates were applied to color read at a wave length of 450 nm.

[3] = biological target: CFP-tagged and YFP-tagged Fas expressed in Hepa 1-6 cells; assay: cell-based or functional assay
[4] = biological target: T3, Fas-Fc (extracellular part of Fas); assay: Fas-Fc pull down assay with protein-A agarose; type: binding; details: in vitro translated 35S-labeled proteins, autoradiography
Text: The Met alpha but not beta chain binds to Fas (FIG. 1a). Various regions of the mouse Met cDNA corresponding to the alpha chain or the extra-cellular portion of the Met beta chain were cloned into expression vectors (pCRT7 TOPO/AlphaMet or pCRT7 TOPO/beta chain) and subjected to in vitro transcription/translation by a rabbit reticolucyte lysate translation system. Empty vector was included in each experiment as a control. The expressed proteins were labeled with ^35S-Methionine. Pull down assays were performed using Fas-Fc, a chimeric molecule which lacks the interacellular cytoplasmic domain and protein-A agarose as described in Wang et al., 2002. FIG. 1b is a schematic presentation of the Met alpha chain and its mutant version used to map the region interacting with Fas. The C-terminus of each construct contains a hexa-Histidine tag for ease of detection. Start cordon ATG was added to the N-terminally truncated constructs. The YLGA (SEQ ID NO:1) motif mutation was prepared by PCR, in which YLGA (SEQ ID NO:1) was replaced by DHER (SEQ ID NO:24). […] In vitro translated ^35S-methionine labeled truncated/mutated AlphaMet proteins were pulled down with 2 μg of Fas-Fc or the same amount of IgG. Lane 1: 10% of AlphaMet input; Lane 2: AlphaMet with IgG control; Lanes 3 to 8: pull down of various truncated AlphaMet proteins; N-terminal 1-106 residues; C-terminal truncated, residues 1-210; alpha chain, residues 1-306; alpha chain with transmembrane domain, 1-338; N-terminally truncated alpha chain, residues 100-306; and N-terminally truncated with addition of the transmembrane domain 100-338, respectively. FIG. 1d depicts the amino acid sequence alignment of alpha chain with FasL, determined using the CLUSTALW, SIM+LALNVIEW, and ALIGN at ExPASy Proteomic Tools (available on the internet at us.expresly.org/tools). The numbers indicate the amino acid residues of the indicated protein. […] Recombinant His-tagged AlphaMet or its mutant version were expressed in E. coli, purified with chromatography, and subjected to Fas-Fc (lanes labeled Fas) or control IgG pull down experiments, and detected by Western blot using anti-His antibody that recognizes C-terminal His. This antibody also recognizes the Fas-Fc which is also tagged at the C-terminus by His. […] Purified recombinant AlphaMet protein (approximately 10 μg) was mixed with Hepa 1-6 cells or Jurkat cell lysates and subjected to immunoprecicitation using anti-Fas antibody or control IgG followed by Western blot using anti His-tag antibody as a probe. […] After washing the wells, anti-human […]-HRP conjugates (1:20,000) were added to detect the bound Fas-Fc using TMD dye and the OD value was determined at a wavelength of 450 nm. […]

Molecule	Fas binding by ELISA [1]	inhibition of FasL binding to Fas-Fc (ELISA) [2]	percent of fluorescent cells showing Fas capping [3]	Fas binding in Fas-Fc pull down [4]
YRGA	completely lost their Fas binding capacity			
YLRA	completely lost their Fas binding capacity			
FLGAV	very active in binding to Fas	inhibiting FasL binding to Fas		
HHIFLGATNYIY	strong Fas-binding activity	significantly inhibited FasL binding		
RLGA	completely lost their Fas binding capacity			
FLGA [FLGA tetramer]	identical binding activity to that of the YLGA tetramer			
Met beta chain: extracellular region of Met beta chain (amino acids 308 to 968, with transmembrane portion) (protein) TREEVFNILQAAYVSKPGANLAKQIGASPSDDILFGVFAQSKPDSAEPVNRSAVCAFPIKYVNDFFNKIVNKNNVRCLQHFYGPNHEHCFNRTLLRNSSGCEARSDEYRTEFTTALQRVDLFMGRLNQVLLTSISTFIKGDLTIANLGTSEGRFMQVVLSRTAHLTPHVNFLLDSHPVSPEVIVEHPSNQNGYTLVVTGKKITKIPLNGLGCGHFQSCSQCLSAPYFIQCGWCHNQCVRFDECPSGTWTQEICLPAVYKVFPTSAPLEGGTVLTICGWDFGFRKNNKFDLRKTKVLLGNESCTLTLSESTTNTLKCTVGPAMSEHFNVSVIISNSRETTQYSAFSYVDPVITSISPRYGPQAGGTLLTLTGKYLNSGNSRHISIGGKTCTLKSVSDSILECYTPAQTTSDEFPVKLKIDLANRETSSFSYREDPVVYEIHPTKSFISGGSTITGIGKTLNSVSLPKLVIDVHEVGVNYTVACQHRSNSEIICCTTPSLKQLGLQLPLKTKAFFLLDGILSKHFDLTYVHNPVFEPFEKPVMISMGNENVVEIKGNNIDPEAVKGEVLKVGNQSCESLHWHSGAVLCTVPSDLLKLNSELNIEWKQAVSSTVLGKVIVQPDQNFAGLIIGAVSISVVVLLLSGLFLWMRKRKHKDLGSELVR				not the Met beta chain region bound specifically

Continued, in another order:

Fas binding by ELISA [1]	inhibition of FasL binding to Fas-Fc (ELISA) [2]	percent of fluorescent cells showing Fas capping [3]	Molecule	Fas binding in Fas-Fc pull down [4]
		30%	Jo2, monoclonal anti-Fas antibody	
strong Fas-binding activity	significantly inhibited FasL binding		TGHIYLGAVNRIY [13-mer derived from PlexinA4]	
bound Fas strongly	significantly inhibited FasL binding		FTAETPIQNVVLHGHHIYLGATNYIYVLNDKDLQKV [36 mer]	
bound Fas strongly	significantly inhibited FasL binding		AHSSYLGAVFNLT [YLGA-13 mer]	
